The results in this text go back to patent US20110293593A1, “SIVA 2 STABILIZATION” (YEDA RESEARCH AND DEVELOPMENT CO., LTD., priority 2008, published 2011).

For assay [1], the target named is T1, cIAP1 (Homo sapiens, UniProt Q13490). The assay can be described thus: In-vitro protein-binding assay, cIAP1. The conditions noted are these: recombinant cIAP1 incubated with GST-SIVA2. How it is done:
(§1) (A) Transfected SIVA2 binds to endogenous TRAF2. FLAG-SIVA2 or HIS-SIVA2 (control) was transfected into HEK293T cells. SIVA2 was immunoprecipitated using anti-FLAG M2 beads and the co-precipitated cellular TRAF2 was assayed by western blotting. The total cellular level of TRAF2 is shown at the bottom. (B) SIVA2 binds TRAF2 inducibly. Treatment of the cells EcR293-CD27-SIVA2 with ponasterone for 2 h to induce SIVA2, and treated with CD70 as indicated was followed by immunoprecipitation of TRAF2. […] FLAG-tagged TRAF2 was immunoprecipitated from transfected HEK293T cells with anti-FLAG M2 beads, eluted from the beads using FLAG peptide and incubated with GST-SIVA2 or its mutant, and then subjected to immunoprecipitation and western blotting as indicated. […] Left panel: Binding in vitro. Recombinant cIAP1 was incubated with GST-SIVA2 or its mutant. Right and bottom panels depict binding in transfected HEK293T cells. Right panel: Cells were transfected with HIS-SIVA2, HIS-SIVA2 (1-58), or FLAG-TRAF2. After 28 h the endogenous cIAP1 was immunoprecipitated. MG132 was applied for the last 6 h of incubation. Bottom panel: Cells were transfected with FLAG-SIVA2, FLAG-SIVA2 (1-58) or, as a specificity control, FLAG-GST-BR3-ICD* (in which the BAFF receptor intracellular domain is mutated at its TRAF3-binding region (PVPAT>AVAAA)). […] N/A, not analyzed. […]

The target of assay [2] is T1, cIAP1. The assay can be described thus: In-vitro substrate ubiquitination assay, cIAP1. The conditions noted are these: recombinant cIAP1, E2 UbCH5b or Ubc13/Uev1a. Format: biochemical. How it is done:
FIG. 9 SIVA2 mediates ubquitination of both TRAF2 and cIAP1. (A) cIAP-1 is required for SIVA2-mediated TRAF2 ubiquitination in cells. HEK293T cells were transfected with cIAP1 siRNA and, 24 h later, with the other plasmids as indicated. The extent of ubiquitination of the TRAF2 immunoprecipitated from the lysates of these cells, as well as the cellular levels of the endogenous cIAP1 and cIAP2 and the transfected ubiquitin, were determined by western blot analyses. (B) SIVA2, but not SIVA1, enhances K48-linked polyubiquitination of TRAF2 in cells. HEK293T cells grown in 90-mm plates were transfected by the calcium phosphate method with 4 μg of FLAG-TRAF2 (C34A), together with […] of HA-ubiquitin mutant plasmids and 6 μg of HIS-SIVA2 or HIS-SIVA2 (C73A) or HIS-SIVA1. The cells were lysed 24 h after transfection and TRAF2 was precipitated and analyzed as indicated. Wild-type SIVA2 and SIVA1, as well as SIVA2 (C73A) mutant, co-precipitated with TRAF2 (bottom panel). […]
In-vitro ubiquitination. […] Supernatants of the reaction were analyzed for free polyubiquitin chains formed in solution. For assay of self-ubiquitination of SIVA2 the glutathione beads were washed three times with a buffer containing 20 mM HEPES pH 7.6, 250 mM NaCl, 1 mM DTT, 1% Triton X-100 and Complete Protease Inhibitor Cocktail, boiled with LDS sample buffer (Invitrogen), and analyzed by western blotting. […]

Assay [3] addresses T2, TRAF2 (Homo sapiens, UniProt Q12933).
T2 construct: made in house; host or cells: HEK293T (FLAG-TRAF2); bacteria, pGEX2T (GST-SIVA2)
T2 sequence (Q12933 1-501): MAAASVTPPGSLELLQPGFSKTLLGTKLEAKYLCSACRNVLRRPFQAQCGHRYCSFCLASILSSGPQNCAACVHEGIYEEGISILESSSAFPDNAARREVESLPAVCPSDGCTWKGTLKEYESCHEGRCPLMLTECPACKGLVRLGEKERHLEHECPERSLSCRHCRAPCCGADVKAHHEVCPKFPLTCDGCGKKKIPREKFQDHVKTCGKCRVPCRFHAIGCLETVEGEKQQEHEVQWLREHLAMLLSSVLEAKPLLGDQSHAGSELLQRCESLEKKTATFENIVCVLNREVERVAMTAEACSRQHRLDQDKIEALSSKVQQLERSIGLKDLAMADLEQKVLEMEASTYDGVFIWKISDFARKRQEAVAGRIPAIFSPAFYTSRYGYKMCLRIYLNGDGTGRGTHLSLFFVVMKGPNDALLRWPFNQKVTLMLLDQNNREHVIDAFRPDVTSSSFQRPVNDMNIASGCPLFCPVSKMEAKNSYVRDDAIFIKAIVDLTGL
The assay can be described thus: In-vitro protein-binding assay, TRAF2. The conditions noted are these: FLAG-TRAF2 incubated with GST-SIVA2. As for the experimental part:
as §1

Assay [4] has as its target T3, cIAP1 (human, UniProt Q13490 1-618).
T3 construct: Also used for general sentences that say only 'cIAP1'; also called endogenous cIAP1
The assay can be described thus: immunoprecipitation of the transfected protein, probed for co-precipitated endogenous cIAP1 (FIG. 6D bottom panel). As for the experimental part:
Left panel: Binding in vitro. […] Right and bottom panels depict binding in transfected HEK293T cells. […] After 28 h the endogenous cIAP1 was immunoprecipitated. MG132 was applied for the last 6 h of incubation. […] After 28 h the transfected proteins were immunoprecipitated and probed for co-precipitated endogenous cIAP1. MG132 was applied for the last 6 h of incubation. […] N/A, not analyzed. The asterisk denotes assessment in the yeast two-hybrid test. […] The indicated plasmids were co-transfected into HEK293T cells.

T1 sequence (Q13490 whole entry, species assumed): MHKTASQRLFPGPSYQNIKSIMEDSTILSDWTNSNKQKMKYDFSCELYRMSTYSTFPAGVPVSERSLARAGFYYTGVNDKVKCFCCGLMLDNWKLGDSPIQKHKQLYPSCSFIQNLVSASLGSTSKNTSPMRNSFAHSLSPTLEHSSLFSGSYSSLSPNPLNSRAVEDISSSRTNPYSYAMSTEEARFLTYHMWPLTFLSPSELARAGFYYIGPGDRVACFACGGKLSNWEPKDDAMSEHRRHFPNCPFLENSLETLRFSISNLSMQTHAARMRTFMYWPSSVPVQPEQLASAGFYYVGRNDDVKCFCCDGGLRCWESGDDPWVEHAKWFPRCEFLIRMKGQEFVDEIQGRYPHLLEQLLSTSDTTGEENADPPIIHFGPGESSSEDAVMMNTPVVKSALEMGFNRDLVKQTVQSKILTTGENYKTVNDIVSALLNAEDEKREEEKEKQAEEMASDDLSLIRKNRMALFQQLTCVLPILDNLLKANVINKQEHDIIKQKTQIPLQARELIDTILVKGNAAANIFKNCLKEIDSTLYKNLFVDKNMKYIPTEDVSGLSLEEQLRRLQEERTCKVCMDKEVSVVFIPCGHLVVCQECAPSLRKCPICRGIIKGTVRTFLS
T3 sequence (Q13490 whole entry): as the sequence (Q13490 whole entry, species assumed) above

B1: SIVA2: short splice variant of SIVA, E3 ligase (NM—021709, SEQ ID NO:11); recombinant GST fusion in in-vitro tests (protein)
chain: MPKRSCPFADVAPLQLKVRVSQRELSRGVCAERYSQEVFDPSGVASIACSSCVRAVDGKAVCGQCERALCGQCVRTCWGCGSVACTLCGLVDCSDMYEKVLCTSCAMFET
modifications: left off: a dimerising Fc or GST; large carriers; small tags and cut ends
notes: recombinant GST fusion in in-vitro tests
For B1, in assay [1], the “binding of SIVA2 to cIAP1” value is “binds at its N-terminus to cIAP1”. Moreover, the “ubiquitination of cIAP1” value in assay [2] is “effectively ubiquitinated”. The “binding of SIVA2 to TRAF2 in vitro” value in assay [3] was “binds TRAF2 in vitro”.

B2: FLAG-SIVA2 (1-58) (other, not shown: small tags and cut ends)
chain: MPKRSCPFADVAPLQLKVRVSQRELSRGVCAERYSQEVFDPSGVASIACSSCVRAVDG
notes: also called SIVA N-terminus
With B2, the binding result in assay [4] is recorded as “binds”.
